Target: TrkB receptor (endogenous, at mouse motor nerve terminals) (mouse) (UniProt P15209)
Assay: cell-based or functional assay

Chain of UniProt P15209 (P15209 32-821): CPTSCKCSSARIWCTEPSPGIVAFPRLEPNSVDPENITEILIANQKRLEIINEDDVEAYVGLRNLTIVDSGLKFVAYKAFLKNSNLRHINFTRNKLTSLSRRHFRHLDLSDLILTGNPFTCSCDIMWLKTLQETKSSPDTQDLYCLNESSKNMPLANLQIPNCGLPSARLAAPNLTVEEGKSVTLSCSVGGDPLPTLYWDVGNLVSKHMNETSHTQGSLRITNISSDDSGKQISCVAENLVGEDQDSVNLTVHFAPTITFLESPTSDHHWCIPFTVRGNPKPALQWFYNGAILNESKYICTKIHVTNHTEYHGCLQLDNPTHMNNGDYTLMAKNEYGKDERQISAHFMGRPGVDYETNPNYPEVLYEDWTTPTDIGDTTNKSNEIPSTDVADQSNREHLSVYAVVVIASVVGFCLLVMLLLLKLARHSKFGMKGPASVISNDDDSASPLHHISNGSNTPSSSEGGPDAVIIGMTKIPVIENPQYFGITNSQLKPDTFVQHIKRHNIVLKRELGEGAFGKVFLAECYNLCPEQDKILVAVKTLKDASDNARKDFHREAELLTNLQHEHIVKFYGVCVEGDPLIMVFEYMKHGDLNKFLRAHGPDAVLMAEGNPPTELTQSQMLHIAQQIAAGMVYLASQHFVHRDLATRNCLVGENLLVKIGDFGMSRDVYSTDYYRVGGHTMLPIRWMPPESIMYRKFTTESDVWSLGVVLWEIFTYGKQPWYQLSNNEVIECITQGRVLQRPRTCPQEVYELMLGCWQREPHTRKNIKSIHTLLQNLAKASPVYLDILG

Substance	GFP-TTC localization at the NMJ, fold increase	elevation in the level of GFP-TTC concentration at the NMJ (LAL), 100 ng BDNF	elevation in the level of GFP-TTC concentration at the NMJ (LAL), 250 ng BDNF	increase of GFP-TTC signal at the NMJ by BDNF after BoTx/A treatment
recombinant human Neurotrophin 4 (NT-4) (from UniProt P34130 81-210) (ligand)	1.54 fold			
recombinant human Brain Derived Neurotrophic Factor (BDNF) (from UniProt P23560 129-247) (ligand)		1.72 fold	1.15 fold	2.05 fold
